Data on five molecules can be found in article PMC8804921.

Data set [1] deals with HSFA1a-MBP (UniProt P41151 1-495). In words: EMSA.
Data set [2] has as its target T1, BES1 (BES1-GST / GST-BES1);HSFA1a-MBP (Arabidopsis thaliana?;Arabidopsis …, UniProt Q9LN63;P41151 1-335;1-495, |). In words: EMSA. For orientation: Mobility shift assays separate free from complexed probe on a gel.
For data set [3], the target named is BES1 (BES1-GST / GST-BES1) (UniProt Q9LN63 1-335). Description: EMSA.
The target in data set [4] is T1, BES1 (BES1-GST / GST-BES1);HSFA1a-MBP. Description: competition.

Changes are numbered by the printed parent chain.

T1 sequence (Q9LN63 whole entry, chain 1 of 2): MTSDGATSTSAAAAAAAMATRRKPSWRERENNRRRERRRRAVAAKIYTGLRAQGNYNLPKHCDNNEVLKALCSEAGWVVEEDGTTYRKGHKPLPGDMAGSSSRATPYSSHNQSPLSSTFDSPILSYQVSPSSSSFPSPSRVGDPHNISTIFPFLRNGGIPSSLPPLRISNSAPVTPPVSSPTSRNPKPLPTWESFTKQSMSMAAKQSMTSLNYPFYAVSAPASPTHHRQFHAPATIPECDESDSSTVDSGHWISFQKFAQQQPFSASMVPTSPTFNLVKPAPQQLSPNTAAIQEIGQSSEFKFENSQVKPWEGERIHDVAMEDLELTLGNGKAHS
T1 sequence (P41151 whole entry, chain 2 of 2): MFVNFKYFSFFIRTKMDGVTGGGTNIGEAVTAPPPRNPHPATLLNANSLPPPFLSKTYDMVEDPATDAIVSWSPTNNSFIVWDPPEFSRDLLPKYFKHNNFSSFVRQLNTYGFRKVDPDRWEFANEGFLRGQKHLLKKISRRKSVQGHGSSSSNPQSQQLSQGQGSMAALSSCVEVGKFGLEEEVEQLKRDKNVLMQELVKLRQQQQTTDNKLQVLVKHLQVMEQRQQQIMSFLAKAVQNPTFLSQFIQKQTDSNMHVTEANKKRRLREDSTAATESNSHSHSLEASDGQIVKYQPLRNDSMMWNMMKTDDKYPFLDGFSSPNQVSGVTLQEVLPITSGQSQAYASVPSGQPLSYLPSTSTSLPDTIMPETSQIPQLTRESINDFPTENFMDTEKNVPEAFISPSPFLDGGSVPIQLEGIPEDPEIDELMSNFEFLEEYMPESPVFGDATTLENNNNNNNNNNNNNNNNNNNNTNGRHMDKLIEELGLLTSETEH
Chain of BES1 (BES1-GST / GST-BES1) (Q9LN63 whole entry): as the sequence (Q9LN63 whole entry, chain 1 of 2) above
Chain of HSFA1a-MBP (P41151 whole entry): as the sequence (P41151 whole entry, chain 2 of 2) above

B1: pHSP90.1 EMSA HSE (C1 +HSE) (dsDNA)
DNA 1: GAGTCTCGAAACGAAAAGAACTTTCTGGAATTCGTTTGCTCACAAAG
DNA 2: CTTTGTGAGCAAACGAATTCCAGAAAGTTCTTTTCGTTTCGAGACTC
With B1, the binding result in data set [1] and in data set [2] was “binds” throughout.

B2: pHSP70.3 EMSA BRRE (C1 +BRRE) (dsDNA)
DNA 1: ATCCAACTCCAAAAGATCGTGCGGTTACATAGCGAGCCAT
DNA 2: ATGGCTCGCTATGTAACCGCACGATCTTTTGGAGTTGGAT
Regarding B2, the binding result in data set [3] is recorded as “binds”.

B3: pHSP70.3 EMSA HSE (C1 +HSE) (dsDNA)
DNA 1: TTACATAGCGAGCCATCGAACCTTCTCGAAACTCGAGTACAAGACTC
DNA 2: GAGTCTTGTACTCGAGTTTCGAGAAGGTTCGATGGCTCGCTATGTAA
For the molecule B3, the binding result in data set [1] and in data set [2] was “binds” each time.

B4: pHSP70.3 EMSA HSEmut (C2 -HSE) (dsDNA)
DNA 1: B3 DNA 1 with G18T, C25A, G28T
DNA 2: B3 DNA 2 with C20A, G23T, C30A
In the case of B4, in data set [4], the binding result is given as “no binding”.

B5: pHSP90.1 EMSA BRRE (C1 +BRRE) (dsDNA)
DNA 1: TCCATCAGCTACAAAGTCGTGTGCGATTTTGAGTCGTTGT
DNA 2: ACAACGACTCAAAATCGCACACGACTTTGTAGCTGATGGA
Consider B5, for which the binding result in data set [3] is given as “binds”.
